{
  "source": "paper PMC4733404",
  "molecular_target": "BDBV GP[change] (recombinant GP form that lacks the highly glycosylated mucin-like domains) (Bundibugyo virus (BDBV))",
  "experiment": "negative-stain single-particle electron microscopy",
  "data": [
    {"substance": "BDBV GP[change] (recombinant GP form that lacks the highly glycosylated mucin-like domains) (domain or fragment)", "values": [
      {"measurement": "stoichiometry N", "result": 3}
    ]}
  ]
}
